Patent publication US20060015959

Biological target: recombinant Tau (Panvera)

B1: full length human transglutaminase II (protein)
chain: MAEELVLERCDLELETNGRDHHTADLCREKLVVRRGQPFWLTLHFEGRNYEASVDSLTFSVVTGPAPSQEAGTKARFPLRDAVEEGDWTATVVDQQDCTLSLQLTTPANAPIGLYRLSLEASTGYQGSSFVLGHFILLFNAWCPADAVYLDSEEERQEYVLTQQGFIYQGSAKFIKNIPWNFGQFEDGILDICLILLDVNPKFLKNAGRDCSRRSSPVYVGRVVSGMVNCNDDQGVLLGRWDNNYGDGVSPMSWIGSVDILRRWKNHGCQRVKYGQCWVFAAVACTVLRCLGIPTRVVTNYNSAHDQNSNLLIEYFRNEFGEIQGDKSEMIWNFHCWVESWMTRPDLQPGYEGWQALDPTPQEKSEGTYCCGPVPVRAIKEGDLSTKYDAPFVFAEVNADVVDWIQQDDGSVHKSINRSLIVGLKISTKSVGRDEREDITHTYKYPEGSSEEREAFTRANHLNKLAEKEETGMAMRIRVGQSMNMGSDFDVFAHITNNTAEEYVCRLLLCARTVSYNGILGPECGTKYLLNLNLEPFSEKSVPLCILYEKYRDCLTESNLIKVRALLVEPVINSYLLAERDLYLENPEIKIRILGEPKQKRKLVAEVSLQNPLPVALEGCTFTVEGAGLTEEQKTVEIPDPVEAGEEVKVRMDLLPLHMGLHKLVVNFESDKLKAVKGFRNVIIGPA
B1 was tested, and the “tau aggregation (high molecular weight total tau immunoreactive protein complex on western blot) in the transglutaminase activity assay” value was “increased, Ca2+-dependent tau aggregation when recombinant tau was added to brain lysate from mice with overexpression of hTGII”.
